From article PMC6412877, “Novel Site-Specific Fatty Chain-Modified GLP-1 Receptor Agonist with Potent Antidiabetic Effects” (Molecules, 2019)
Like-named read-outs stand apart in the source and are kept apart here. Ends that are not written are not given here. fatty chain = not defined here

B1: PEP09 (peptide)
peptide: KQYSSPTAWLVGGPSSGAPPPS
B2: PEP14 (peptide)
peptide: FFYSSPSAYKETGGPSSGAPPPS
B3: PEP15 (peptide)
peptide: FFYSSPSAYLKTGGPSSGAPPPS
B4: PEP16 (peptide)
peptide: FFYSSPSAYLEKGGPSSGAPPPS
B5: PEP19 (peptide)
peptide: FFYSSPSAYLK(fatty chain)TGGPSSGAPPPS
modifications: reading uncertain; also: fatty chain not given here
B6: PEP20 (peptide)
peptide: FFYSSPSAYLEK(fatty chain)GGPSSGAPPPS
modifications: reading uncertain; also: fatty chain not given here
B7: PEP13 (peptide)
peptide: FFYSSPSAKLETGGPSSGAPPPS
B8: PEP18 (peptide)
peptide: FFYSSPSAYK(fatty chain)ETGGPSSGAPPPS
modifications: reading uncertain; also: fatty chain not given here
B9: PEP17 (peptide)
peptide: FFYSSPSAK(fatty chain)LETGGPSSGAPPPS
modifications: reading uncertain; also: fatty chain not given here

How the values were obtained:
[1] = biological target: Glucagon-like peptide-1 receptor extracellular domain; test: SPR; Biacore 8K, according to the user's manual; who was immobilised and the conditions are not stated
Human GLP-1R (human) = Human GLP-1R (human) (UniProt P43220)
Chain of Human GLP-1R (human) (P43220 24-463): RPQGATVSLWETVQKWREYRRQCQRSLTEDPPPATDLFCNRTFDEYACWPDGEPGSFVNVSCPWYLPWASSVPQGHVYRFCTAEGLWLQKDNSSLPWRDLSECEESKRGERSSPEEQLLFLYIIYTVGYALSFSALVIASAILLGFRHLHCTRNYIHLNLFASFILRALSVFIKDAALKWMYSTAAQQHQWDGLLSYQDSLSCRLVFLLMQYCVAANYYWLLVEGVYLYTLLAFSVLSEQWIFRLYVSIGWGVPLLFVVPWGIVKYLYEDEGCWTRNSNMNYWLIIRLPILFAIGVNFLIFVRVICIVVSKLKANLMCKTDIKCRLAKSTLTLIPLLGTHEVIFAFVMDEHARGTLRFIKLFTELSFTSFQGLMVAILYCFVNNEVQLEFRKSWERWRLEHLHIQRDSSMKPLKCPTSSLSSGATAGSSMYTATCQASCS

Mouse GLP-1R (mouse) = Mouse GLP-1R (mouse) (UniProt O35659)
Chain of Mouse GLP-1R (mouse) (O35659 22-463): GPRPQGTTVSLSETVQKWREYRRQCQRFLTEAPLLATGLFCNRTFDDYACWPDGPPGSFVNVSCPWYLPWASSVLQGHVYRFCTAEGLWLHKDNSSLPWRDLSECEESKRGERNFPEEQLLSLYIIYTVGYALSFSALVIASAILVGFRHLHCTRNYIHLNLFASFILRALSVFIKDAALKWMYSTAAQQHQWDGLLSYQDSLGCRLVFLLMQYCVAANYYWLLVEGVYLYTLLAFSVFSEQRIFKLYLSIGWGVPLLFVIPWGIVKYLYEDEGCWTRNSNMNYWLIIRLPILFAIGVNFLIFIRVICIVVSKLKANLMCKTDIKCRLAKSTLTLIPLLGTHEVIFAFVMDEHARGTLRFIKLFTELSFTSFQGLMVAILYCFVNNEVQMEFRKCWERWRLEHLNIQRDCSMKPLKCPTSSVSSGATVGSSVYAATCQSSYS

[2] = biological target: Glucagon-like peptide-1 receptor extracellular domain; test: SPR; Biacore 8K, according to the user's manual; who was immobilised and the conditions are not stated; remark: listed apart in the source

Row | Binder | Kd [1] [nM] | EC50 (nM), Human GLP-1R activation, in vitro cell assay (Human GLP-1R (human)) [nM] | Emax (%), Human GLP-1R activation, in vitro cell assay (Human GLP-1R (human)) [%] | EC50 (nM), Mouse GLP-1R activation, in vitro cell assay (Mouse GLP-1R (mouse)) [nM] | Emax (%), Mouse GLP-1R activation, in vitro cell assay (Mouse GLP-1R (mouse)) [%] | Kd [2] [nM]
1 | B1 | 253 |  |  |  |  | 
2 | B2 | 53 | 0.051 | 105 | 0.034 | 150 | 
3 | B3 | 33 | 0.451 | 78 | 0.457 | 73 | 
4 | B4 | 23 | 0.111 | 92 | 0.101 | 93 | 25
5 | B5 | 91 | 0.152 | 89 | 0.212 | 83 | 
6 | B6 | 25 | 0.062 | 98 | 0.051 | 99 | 
7 | B7 | 98 | 0.064 | 96 | 0.051 | 110 | 
8 | B8 | 62 | 0.391 | 78 | 0.351 | 78 | 
9 | B9 | 158 | 0.412 | 79 | 0.678 | 68 | 
